Measured values from paper PMC6628648, “Enabling microbial syringol conversion through structure-guided protein engineering” (Proceedings of the National Academy of Sciences of the …, 2019).

Experiments:
COc1cccc(OC)c1O = assay: purified protein, by the assay type; conditions: pH 7.5; 25.0 °C
COc1ccccc1O = assay: purified protein, by the assay type; conditions: pH 7.5; 25.0 °C

Substance: GcoA-F169A (Amycolatopsis sp. ATCC 39116; F169A)
- Km (COc1cccc(OC)c1O): 10 ± 1 µM
- kcat (COc1cccc(OC)c1O): 5.9 ± 0.01 s⁻¹
- kcat/Km (COc1cccc(OC)c1O): 600000 ± 90000 M⁻¹ s⁻¹
- Km (COc1ccccc1O): 40 ± 6 µM
- kcat (COc1ccccc1O): 11 ± 0.03 s⁻¹
- kcat/Km (COc1ccccc1O): 290000 ± 40000 M⁻¹ s⁻¹
